According to patent publication US20240116985A1 (published 2024):
Starred links: 1 amine or outer side, 2 acyl side, 3 side chain; linkers in the order of their positions; H or OH if unused. Positions of bridges follow the written chain, without caps; N, C: chain ends. Non-standard residues stand in square brackets, D forms with d. Primed or numbered codes have the meaning given here. *: point of attachment. B5(24) = 2-amino-2-(pent-4-en-1-yl)hept-6-enoic acid, 2,2-bis(4-pentenyl)glycine (stitching residue), C=CCCCC(CCCC=C)(N[*:1])C(=O)[*:2]; B5(4) = 2,2-bis(4-pentenyl)glycine = 2-amino-2-(pent-4-en-1-yl)hept-6-enoic acid (stitching residue), C=CCCCC(CCCC=C)(N[*:1])C(=O)[*:2]; B5 = 2-amino-2-(pent-4-en-1-yl)hept-6-enoic acid, C=CCCCC(CCCC=C)(N[*:1])C(=O)[*:2]; Bta = N[C@@H](Cc1csc2ccccc12)C(=O)O; αAllylPro = C=CC[C@@]1(C(=O)O)CCCN1; Azidoacetyl = [N-]=[N+]=NCC(=O)*; S8 = C=CCCCCCC[C@](C)(N)C(=O)O; Nicotinoyl = O=C(c1cccnc1)*; Picolinoyl = O=C(c1ccccn1)*

T1: full-length beta-Catenin (Uniprot ID P35222) (Homo sapiens (Human), UniProt P35222 1-781)
T1 construct: The assay text says 'full-length beta-Catenin (Uniprot ID P35222)'; also called bCat; B-Catenin
T1 sequence: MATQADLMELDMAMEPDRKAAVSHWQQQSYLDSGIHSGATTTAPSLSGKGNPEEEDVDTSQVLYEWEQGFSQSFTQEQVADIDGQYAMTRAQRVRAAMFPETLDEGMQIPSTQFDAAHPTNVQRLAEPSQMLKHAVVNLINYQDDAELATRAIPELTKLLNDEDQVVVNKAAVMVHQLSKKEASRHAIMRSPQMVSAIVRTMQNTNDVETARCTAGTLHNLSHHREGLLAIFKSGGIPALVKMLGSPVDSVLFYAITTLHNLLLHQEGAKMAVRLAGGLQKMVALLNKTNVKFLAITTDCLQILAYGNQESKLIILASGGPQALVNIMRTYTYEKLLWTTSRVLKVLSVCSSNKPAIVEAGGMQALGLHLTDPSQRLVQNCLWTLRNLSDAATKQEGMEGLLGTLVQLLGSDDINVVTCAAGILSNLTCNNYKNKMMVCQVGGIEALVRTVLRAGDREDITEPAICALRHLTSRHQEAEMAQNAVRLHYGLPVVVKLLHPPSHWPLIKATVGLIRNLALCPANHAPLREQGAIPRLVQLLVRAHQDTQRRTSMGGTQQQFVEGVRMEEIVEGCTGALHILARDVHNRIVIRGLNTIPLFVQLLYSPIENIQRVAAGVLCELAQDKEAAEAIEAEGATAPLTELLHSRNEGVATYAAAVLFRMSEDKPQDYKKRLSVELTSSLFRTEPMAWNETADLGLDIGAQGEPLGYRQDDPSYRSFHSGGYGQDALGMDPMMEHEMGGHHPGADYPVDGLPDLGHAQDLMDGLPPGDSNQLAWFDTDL

B1: I-598 (peptide)
peptide: Nicotinoyl-[αAllylPro]DI[B5]DEAAFQ[S8]F[Bta]Q-NH2
modifications: staple 1-4, 4-11
notes: Stapled peptide composition; N-terminal cap Nic
B2: I-589 (peptide)
peptide: XDKXDEAAFQXFXQ
modifications: not fully specified; Ac-PL3-Asp-[AzAc]Lys-B5-Asp-Glu-Ala-Ala-Phe-Gln-S8-Phe-BztA-Gln-NH2; stapled PL3(1)-B5(4) and B5(4)-S8(11) by olefin metathesis
notes: Stapled peptide composition; same description as I-590, earlier eluting HPLC peak (staple isomer)
B3: I-591 (peptide)
peptide: Ac-[αAllylPro]DI[B5(4)]DEK(Azidoacetyl)AFQ[S8]F[Bta]Q-NH2
modifications: staple 1-4, 4-11; not fully specified; printed as Ac-PL3-Asp-Ile-B5-Asp-Glu-[AzAc]Lys-Ala-Phe-Gln-S8-Phe-BztA-Gln-NH2
notes: Stapled peptide composition
B4: I-581 (peptide)
peptide: XDIXDDAAFQXFXH
modifications: not fully specified; Ac-PL3-Asp-Ile-B5-Asp-Asp-Ala-Ala-Phe-Gln-S8-Phe-BztA-His-NH2; stapled PL3(1)-B5(4) and B5(4)-S8(11) by olefin metathesis
notes: Stapled peptide composition; same description as I-580, later eluting HPLC peak (staple isomer)
B5: I-601 (peptide)
peptide: XDIXDEAAFQXFXQ
modifications: Bnc-PL3-Asp-Ile-B5-Asp-Glu-Ala-Ala-Phe-Gln-S8-Phe-BztA-Gln-NH2; stapled PL3(1)-B5(4) and B5(4)-S8(11) by olefin metathesis
notes: Stapled peptide composition; N-terminal cap Bnc; same description as I-600, later eluting HPLC peak (staple isomer)
B6: I-599 (peptide)
peptide: Picolinoyl-[αAllylPro]DI[B5]DEAAFQ[S8]F[Bta]Q-NH2
modifications: staple 1-4, 4-11
notes: Stapled peptide composition; N-terminal cap Pic
B7: I-586 (peptide)
peptide: Ac-[αAllylPro]DI[B5(24)]DEAA[Bta]Q[S8]FFQ-NH2
modifications: staple 1-4, 4-11; not fully specified; printed as Ac-PL3-Asp-Ile-B5-Asp-Glu-Ala-Ala-BztA-Gln-S8-Phe-Phe-Gln-NH2
notes: Stapled peptide composition
B8: I-576 (peptide)
peptide: XDLXDEAAFNXFXQ
modifications: not fully specified; Ac-PL3-Asp-Leu-B5-Asp-Glu-Ala-Ala-Phe-Asn-S8-Phe-BztA-Gln-NH2; stapled PL3(1)-B5(4) and B5(4)-S8(11) by olefin metathesis
notes: Stapled peptide composition; same description as I-577, earlier eluting HPLC peak (staple isomer)
B9: I-602 (peptide)
peptide: XDIXDEAAFQXFXQ
modifications: 2PyPrpc-PL3-Asp-Ile-B5-Asp-Glu-Ala-Ala-Phe-Gln-S8-Phe-BztA-Gln-NH2; stapled PL3(1)-B5(4) and B5(4)-S8(11) by olefin metathesis
notes: Stapled peptide composition; N-terminal cap 2PyPrpc

Each binder was assayed against T1, full-length beta-Catenin (Uniprot ID …) (assay: fluorescence polarization competition; full-length beta-catenin, competitor 5FAM-TCF4(10-53) probe).
Method: The plate was incubated protected from light for 60 minutes at 20° C. prior to read. Reads were performed on a CLARIOstar plate reader (BMG Labtech) in duplicate, and data were fitted to a 1:1 binding model with hill slope using an in-house script. All provided concentrations are final concentrations.
Ac-[αAllylPro]DI[B5(24)]DEAA[Bta]Q[S8]FFQ-NH2 (staple 1-4, 4-11; not fully specified, Stapled peptide composition) [I-585] showed an EC50 of 5000 nM. B1 showed an EC50 of 845 nM. In the case of Ac-[αAllylPro]DI[B5]DQAAFQ[S8]F[Bta]Q-NH2 (staple 1-4, 4-11, Stapled peptide composition) [I-603], the EC50 is reported as 392 nM. Binder Ac-[αAllylPro]DK(Azidoacetyl)[B5(4)]DEAAFQ[S8]F[Bta]Q-NH2 (staple 1-4, 4-11; not fully specified, Stapled peptide composition) [I-590] has an EC50 of 45 nM. Work on B2 yielded an EC50 of 48 nM. Work on B3 yielded an EC50 of 64 nM. For Ac-[αAllylPro]DI[B5]DEAAFK(Azidoacetyl)[S8]F[Bta]Q-NH2 (staple 1-4, 4-11, Stapled peptide composition) [I-594], the EC50 was 87 nM. Ac-[αAllylPro]DI[B5]DEAAFQ[S8]F[Bta]K(Azidoacetyl)-NH2 (staple 1-4, 4-11, Stapled peptide composition) [I-595] gave an EC50 of 57 nM. Ac-[αAllylPro]DI[B5]DEAK(Azidoacetyl)FQ[S8]F[Bta]Q-NH2 (staple 1-4, 4-11, Stapled peptide composition) [I-593] was tested, and the EC50 was 68 nM. In the case of Ac-[αAllylPro]DI[B5]DEK(Azidoacetyl)AFQ[S8]F[Bta]Q-NH2 (staple 1-4, 4-11; not fully specified, Stapled peptide composition) [I-592], the EC50 is reported as 24 nM. Ac-[αAllylPro]DI[B5]DDAAFQ[S8]F[Bta]H-NH2 (staple 1-4, 4-11; not fully specified, Stapled peptide composition) [I-580] showed an EC50 of 114 nM. B4 showed an EC50 of 112 nM. Ac-[αAllylPro]FI[B5(24)]DEAADQ[S8]F[Bta]Q-NH2 (staple 1-4, 4-11, Stapled peptide composition) [I-588] showed an EC50 of 5000 nM. B5 showed an EC50 of 419 nM. Binder B6 has an EC50 of 138 nM. Work on B7 yielded an EC50 of 5000 nM. B8 was tested, and the EC50 was 23 nM. With B9 the EC50 was 3150 nM.
